This passage reports concentration and lowest concentration results from article PMC5586252, “PP2A-B′ holoenzyme substrate recognition, regulation and role in cytokinesis” (Cell Discovery, 2017).

The target of this assay is GST-tagged B′γ1 regulatory subunit (UniProt Q13362). The experiment in a line: pull-down; 10 μg GST-tagged B′γ1 immobilised; titrated concentrations of phosphorylated or non-phosphorylated Cyk4 (1–177).

For “pCyk4 (1–177), Plk1-phosphorylated (from UniProt Q9H0H5 1-177) (domain or fragment)”, the concentration at half maximum binding lay in the range of 2.5 to 5 µM and the lowest concentration at which the interaction is detected worked out at 0.6 µM.
